Key:
[1] = target: Grb2 SH2 (UniProt P62993); assay: SH2 binding enrichment of the phosphorylated peptide, bacterial display (enrichment ratio); higher = better substrate or ligand; peptides without Tyr show the background
[2] = target: SHP2-C SH2; assay: as above
[3] = target: c-Src SH2; assay: as above
[4] = target: EPHB1 (UniProt P54762); assay: phosphorylation enrichment, bacterial display (enrichment ratio); higher = better substrate or ligand; peptides without Tyr show the background
[5] = target: Fyn (UniProt P06241); assay: as above
Fyn, sequence (P06241 whole entry, looked up): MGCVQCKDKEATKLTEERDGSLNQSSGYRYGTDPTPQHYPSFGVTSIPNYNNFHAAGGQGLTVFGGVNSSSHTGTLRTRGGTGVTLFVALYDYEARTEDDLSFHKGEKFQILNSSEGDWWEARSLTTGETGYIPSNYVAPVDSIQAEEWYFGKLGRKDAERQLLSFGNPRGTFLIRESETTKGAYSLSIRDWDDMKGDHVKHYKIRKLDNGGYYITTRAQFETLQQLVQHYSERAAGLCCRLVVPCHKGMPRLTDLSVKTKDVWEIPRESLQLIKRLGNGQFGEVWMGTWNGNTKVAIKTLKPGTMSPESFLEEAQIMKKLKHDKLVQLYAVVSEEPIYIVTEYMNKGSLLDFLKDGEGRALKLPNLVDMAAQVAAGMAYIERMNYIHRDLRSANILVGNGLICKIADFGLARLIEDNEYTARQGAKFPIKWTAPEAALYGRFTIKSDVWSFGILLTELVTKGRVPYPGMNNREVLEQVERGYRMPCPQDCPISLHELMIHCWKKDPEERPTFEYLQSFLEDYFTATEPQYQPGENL

[6] = target: FGFR1 (UniProt P11362); assay: as above
FGFR1, sequence (P11362 whole entry, looked up): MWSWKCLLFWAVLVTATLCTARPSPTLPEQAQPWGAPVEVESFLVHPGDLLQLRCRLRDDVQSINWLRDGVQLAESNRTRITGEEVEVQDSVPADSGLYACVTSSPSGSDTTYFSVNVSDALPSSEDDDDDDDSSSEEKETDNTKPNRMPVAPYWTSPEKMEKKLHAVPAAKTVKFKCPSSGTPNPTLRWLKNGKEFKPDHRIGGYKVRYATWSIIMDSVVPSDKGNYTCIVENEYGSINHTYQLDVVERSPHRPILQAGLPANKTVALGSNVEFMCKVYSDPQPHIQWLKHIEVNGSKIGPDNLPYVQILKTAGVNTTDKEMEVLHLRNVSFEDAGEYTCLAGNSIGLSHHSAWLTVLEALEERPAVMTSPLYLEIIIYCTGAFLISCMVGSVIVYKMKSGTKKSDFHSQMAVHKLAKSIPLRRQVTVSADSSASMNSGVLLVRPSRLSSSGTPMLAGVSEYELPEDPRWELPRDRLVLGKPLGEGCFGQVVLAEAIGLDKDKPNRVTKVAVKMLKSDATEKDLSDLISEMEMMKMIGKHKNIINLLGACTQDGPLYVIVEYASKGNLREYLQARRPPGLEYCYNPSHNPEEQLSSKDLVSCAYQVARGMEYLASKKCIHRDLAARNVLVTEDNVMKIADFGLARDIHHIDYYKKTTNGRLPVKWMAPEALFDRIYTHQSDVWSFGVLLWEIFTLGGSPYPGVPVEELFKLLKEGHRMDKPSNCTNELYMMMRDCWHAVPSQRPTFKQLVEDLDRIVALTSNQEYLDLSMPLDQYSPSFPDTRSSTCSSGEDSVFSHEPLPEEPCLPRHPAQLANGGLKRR

[7] = test system: c-Abl (mouse); assay: as above
[8] = target: Jak2 (UniProt O60674); assay: as above
Jak2, sequence (O60674 whole entry, looked up): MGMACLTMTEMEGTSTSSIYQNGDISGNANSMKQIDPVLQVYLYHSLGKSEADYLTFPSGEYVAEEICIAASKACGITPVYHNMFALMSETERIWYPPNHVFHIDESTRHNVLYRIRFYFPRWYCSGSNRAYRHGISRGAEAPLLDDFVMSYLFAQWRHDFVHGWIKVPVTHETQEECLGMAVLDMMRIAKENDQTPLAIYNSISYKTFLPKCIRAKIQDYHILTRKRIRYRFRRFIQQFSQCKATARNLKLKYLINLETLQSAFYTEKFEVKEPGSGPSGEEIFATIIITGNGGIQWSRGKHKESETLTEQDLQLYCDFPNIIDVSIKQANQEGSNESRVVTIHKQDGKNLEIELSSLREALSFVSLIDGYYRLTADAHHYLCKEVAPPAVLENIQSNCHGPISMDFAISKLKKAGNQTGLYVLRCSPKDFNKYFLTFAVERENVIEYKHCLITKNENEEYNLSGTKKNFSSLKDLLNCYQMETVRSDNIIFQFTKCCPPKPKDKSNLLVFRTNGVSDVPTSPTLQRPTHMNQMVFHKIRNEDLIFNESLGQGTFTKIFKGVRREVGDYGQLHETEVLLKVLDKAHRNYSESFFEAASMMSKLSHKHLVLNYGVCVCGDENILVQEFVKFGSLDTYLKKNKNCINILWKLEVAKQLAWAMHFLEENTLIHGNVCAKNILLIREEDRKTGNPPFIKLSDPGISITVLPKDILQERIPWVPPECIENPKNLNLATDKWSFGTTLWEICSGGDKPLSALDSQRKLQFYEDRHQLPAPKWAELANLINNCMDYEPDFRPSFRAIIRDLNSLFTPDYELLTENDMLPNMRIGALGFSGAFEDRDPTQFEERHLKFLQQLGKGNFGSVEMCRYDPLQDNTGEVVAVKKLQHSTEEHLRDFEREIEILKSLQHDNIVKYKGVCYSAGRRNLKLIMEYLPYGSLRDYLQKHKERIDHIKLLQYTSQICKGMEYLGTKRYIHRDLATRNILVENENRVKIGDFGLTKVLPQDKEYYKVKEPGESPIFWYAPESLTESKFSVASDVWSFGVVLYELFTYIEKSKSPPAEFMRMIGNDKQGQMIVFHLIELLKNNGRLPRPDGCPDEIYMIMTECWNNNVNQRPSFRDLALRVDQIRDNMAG

[9] = target: Fes (UniProt P07332); assay: as above
Fes, sequence (P07332 whole entry, looked up): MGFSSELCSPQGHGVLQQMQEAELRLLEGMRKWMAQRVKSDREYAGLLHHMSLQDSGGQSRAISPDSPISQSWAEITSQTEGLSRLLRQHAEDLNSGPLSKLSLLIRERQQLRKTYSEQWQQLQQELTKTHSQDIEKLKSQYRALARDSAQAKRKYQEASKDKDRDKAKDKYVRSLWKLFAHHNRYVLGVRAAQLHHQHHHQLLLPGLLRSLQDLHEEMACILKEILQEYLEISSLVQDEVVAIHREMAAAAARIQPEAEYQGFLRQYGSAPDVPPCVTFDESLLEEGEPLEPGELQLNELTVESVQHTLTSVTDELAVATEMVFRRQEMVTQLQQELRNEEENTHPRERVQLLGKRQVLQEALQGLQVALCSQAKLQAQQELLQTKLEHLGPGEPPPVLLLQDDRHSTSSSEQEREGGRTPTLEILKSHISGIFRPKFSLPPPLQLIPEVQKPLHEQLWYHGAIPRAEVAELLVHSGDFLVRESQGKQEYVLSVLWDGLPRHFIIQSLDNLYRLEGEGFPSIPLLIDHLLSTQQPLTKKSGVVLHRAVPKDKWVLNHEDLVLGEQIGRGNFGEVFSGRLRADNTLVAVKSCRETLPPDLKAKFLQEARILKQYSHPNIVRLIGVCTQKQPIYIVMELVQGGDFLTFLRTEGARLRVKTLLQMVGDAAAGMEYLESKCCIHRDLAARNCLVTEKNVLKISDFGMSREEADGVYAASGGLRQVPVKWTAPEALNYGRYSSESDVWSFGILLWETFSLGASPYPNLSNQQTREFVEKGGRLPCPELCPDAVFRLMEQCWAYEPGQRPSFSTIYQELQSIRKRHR

[10] = test system: Fer (mouse); assay: as above
[11] = target: EPHB2 (UniProt P29323); assay: as above
[12] = target: Hck (UniProt P08631); assay: as above
Hck, sequence (P08631 whole entry, looked up): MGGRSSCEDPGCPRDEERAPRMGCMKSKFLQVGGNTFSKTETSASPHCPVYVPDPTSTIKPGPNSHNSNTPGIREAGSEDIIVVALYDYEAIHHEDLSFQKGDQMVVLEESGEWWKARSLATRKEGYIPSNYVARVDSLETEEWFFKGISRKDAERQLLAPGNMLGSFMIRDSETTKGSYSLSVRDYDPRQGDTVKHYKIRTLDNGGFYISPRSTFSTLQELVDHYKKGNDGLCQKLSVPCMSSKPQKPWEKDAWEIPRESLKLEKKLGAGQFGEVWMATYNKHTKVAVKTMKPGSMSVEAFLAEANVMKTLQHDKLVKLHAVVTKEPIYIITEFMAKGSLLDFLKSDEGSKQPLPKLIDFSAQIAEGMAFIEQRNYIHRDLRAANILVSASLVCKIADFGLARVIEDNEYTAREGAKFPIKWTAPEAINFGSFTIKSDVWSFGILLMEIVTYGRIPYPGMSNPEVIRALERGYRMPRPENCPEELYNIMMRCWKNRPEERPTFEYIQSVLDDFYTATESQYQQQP

[13] = target: MERTK (UniProt Q12866); assay: as above
MERTK, sequence (Q12866 whole entry, looked up): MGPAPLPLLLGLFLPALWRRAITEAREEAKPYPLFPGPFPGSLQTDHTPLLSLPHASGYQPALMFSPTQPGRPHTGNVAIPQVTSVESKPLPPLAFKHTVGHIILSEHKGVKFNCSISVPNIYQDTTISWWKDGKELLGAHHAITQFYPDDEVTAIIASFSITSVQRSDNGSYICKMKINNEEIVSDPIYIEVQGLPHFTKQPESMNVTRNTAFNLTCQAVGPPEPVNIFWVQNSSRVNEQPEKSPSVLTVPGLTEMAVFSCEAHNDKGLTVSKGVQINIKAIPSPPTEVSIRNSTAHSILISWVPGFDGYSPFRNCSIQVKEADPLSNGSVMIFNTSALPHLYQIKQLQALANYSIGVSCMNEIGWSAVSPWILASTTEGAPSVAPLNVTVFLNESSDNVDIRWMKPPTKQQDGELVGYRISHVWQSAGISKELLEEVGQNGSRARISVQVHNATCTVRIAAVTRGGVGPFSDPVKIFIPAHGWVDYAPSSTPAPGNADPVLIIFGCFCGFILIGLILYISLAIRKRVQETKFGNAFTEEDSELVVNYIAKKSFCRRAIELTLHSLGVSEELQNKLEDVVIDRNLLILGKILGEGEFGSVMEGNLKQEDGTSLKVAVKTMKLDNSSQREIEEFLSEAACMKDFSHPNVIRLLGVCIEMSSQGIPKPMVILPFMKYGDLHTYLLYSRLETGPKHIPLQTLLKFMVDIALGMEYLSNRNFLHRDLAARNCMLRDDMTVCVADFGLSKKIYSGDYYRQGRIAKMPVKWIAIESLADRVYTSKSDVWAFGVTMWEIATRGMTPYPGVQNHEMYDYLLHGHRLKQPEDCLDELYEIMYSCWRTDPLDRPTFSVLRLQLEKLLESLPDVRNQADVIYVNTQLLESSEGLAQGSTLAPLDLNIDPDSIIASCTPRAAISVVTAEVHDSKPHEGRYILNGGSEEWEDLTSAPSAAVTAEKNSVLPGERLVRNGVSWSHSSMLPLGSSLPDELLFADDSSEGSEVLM

[14] = target: FGFR3 (UniProt P22607); assay: as above
[15] = test system: c-Src; assay: as above
[16] = test system: AncSZ; assay: as above
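Wherever SH2 binding enrichment of the phosphorylated peptide, bacterial display is given: peptide library displayed on the E. coli surface as eCPX fusions, selected cells deep-sequenced, score is each peptide's frequency after selection divided by its frequency in the input.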
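Wherever phosphorylation enrichment, bacterial display is given: 11-residue human phosphosite peptides and single-mutation variants displayed on the E. coli surface, counted by deep sequencing, each peptide's frequency after selection divided by its frequency in the unselected input library; frequency after pTyr selection over input frequency; kinase dosed for 20-30% of maximal phosphorylation in three min.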

Grb2 SH2, sequence (P62993 whole entry, looked up): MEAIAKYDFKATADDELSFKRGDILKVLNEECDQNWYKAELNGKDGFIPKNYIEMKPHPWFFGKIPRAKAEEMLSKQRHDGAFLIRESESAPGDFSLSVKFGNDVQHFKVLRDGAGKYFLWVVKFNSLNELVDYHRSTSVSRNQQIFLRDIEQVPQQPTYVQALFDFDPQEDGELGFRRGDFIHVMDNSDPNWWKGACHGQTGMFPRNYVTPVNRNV

For PVPKTYDMLNA [PKP2_Y108_K112N], the SH2 binding enrichment [1] was 0.962, the SH2 binding enrichment [2] was 0.659 and the SH2 binding enrichment [3] was 1.57. For the same sequence, the phosphorylation enrichment [4] was 0.512, the phosphorylation enrichment [5] was 0.666 and the phosphorylation enrichment [6] was 0.597. The phosphorylation enrichment [7] was 1.05, the phosphorylation enrichment [8] was 1.04 and the phosphorylation enrichment [9] was 1.11. For the same sequence, the phosphorylation enrichment [10] was 0.542, the phosphorylation enrichment [11] was 0.622 and the phosphorylation enrichment [12] was 1.07. It also gave a phosphorylation enrichment [13] of 1.14, a phosphorylation enrichment [14] of 0.737 and a phosphorylation enrichment [15] of 0.83. The phosphorylation enrichment [16] was 0.866.

For MEKEKYVSFIS [JMJD1C_Y596_YF], the SH2 binding enrichment [1] was 0.711, the SH2 binding enrichment [2] was 0.831 and the SH2 binding enrichment [3] was 0.785. The phosphorylation enrichment [4] was 0.416, the phosphorylation enrichment [5] was 0.348 and the phosphorylation enrichment [6] was 0.434. The phosphorylation enrichment [7] was 0.541, the phosphorylation enrichment [8] was 0.518 and the phosphorylation enrichment [9] was 0.832. For the same sequence, the phosphorylation enrichment [10] was 0.35, the phosphorylation enrichment [11] was 0.417 and the phosphorylation enrichment [12] was 0.497. For the same sequence, the phosphorylation enrichment [13] was 0.454, the phosphorylation enrichment [14] was 0.55 and the phosphorylation enrichment [15] was 0.486. It also gave a phosphorylation enrichment [16] of 0.833.

Work on EASGIYVKSII [PATJ_Y396] yielded an SH2 binding enrichment [1] of 0.994, an SH2 binding enrichment [2] of 0.674 and an SH2 binding enrichment [3] of 0.466. For the same sequence, the phosphorylation enrichment [4] was 0.543, the phosphorylation enrichment [5] was 0.429 and the phosphorylation enrichment [6] was 0.523. For the same sequence, the phosphorylation enrichment [7] was 0.677, the phosphorylation enrichment [8] was 0.983 and the phosphorylation enrichment [9] was 1.13. For the same sequence, the phosphorylation enrichment [10] was 0.492, the phosphorylation enrichment [11] was 0.535 and the phosphorylation enrichment [12] was 0.52. For the same sequence, the phosphorylation enrichment [13] was 0.438, the phosphorylation enrichment [14] was 0.659 and the phosphorylation enrichment [15] was 0.458. It also gave a phosphorylation enrichment [16] of 1.02.

For FTFTSYFMHWV [IGHV1-46_Y51_YF], the SH2 binding enrichment [1] was 1.71, the SH2 binding enrichment [2] was 1.19 and the SH2 binding enrichment [3] was 1.03. For the same sequence, the phosphorylation enrichment [4] was 0.437, the phosphorylation enrichment [5] was 0.474 and the phosphorylation enrichment [6] was 0.5. It also gave a phosphorylation enrichment [7] of 1.05, a phosphorylation enrichment [8] of 2.37 and a phosphorylation enrichment [9] of 1.13. The phosphorylation enrichment [10] was 0.495, the phosphorylation enrichment [11] was 0.648 and the phosphorylation enrichment [12] was 0.451. The phosphorylation enrichment [13] was 0.391, the phosphorylation enrichment [14] was 0.765 and the phosphorylation enrichment [15] was 0.608. The phosphorylation enrichment [16] was 1.16.

For HAVYVCDICHV [TWNK_Y508_Y508C], the SH2 binding enrichment [1] was 1.18, the SH2 binding enrichment [2] was 1.26 and the SH2 binding enrichment [3] was 1.28. The phosphorylation enrichment [4] was 1.79, the phosphorylation enrichment [5] was 0.627 and the phosphorylation enrichment [6] was 0.628. It also gave a phosphorylation enrichment [7] of 0.972, a phosphorylation enrichment [8] of 1.01 and a phosphorylation enrichment [9] of 1.42. For the same sequence, the phosphorylation enrichment [10] was 0.775, the phosphorylation enrichment [11] was 2.06 and the phosphorylation enrichment [12] was 0.826. The phosphorylation enrichment [13] was 0.524, the phosphorylation enrichment [14] was 0.904 and the phosphorylation enrichment [15] was 0.916. For the same sequence, the phosphorylation enrichment [16] was 1.1.

VVKTVYSLQPP [KNSTRN_Y87] gave an SH2 binding enrichment [1] of 0.803, an SH2 binding enrichment [2] of 1.03 and an SH2 binding enrichment [3] of 0.441. The phosphorylation enrichment [4] was 0.571, the phosphorylation enrichment [5] was 2.59 and the phosphorylation enrichment [6] was 0.458. The phosphorylation enrichment [7] was 0.777, the phosphorylation enrichment [8] was 0.681 and the phosphorylation enrichment [9] was 0.817. For the same sequence, the phosphorylation enrichment [10] was 0.387, the phosphorylation enrichment [11] was 0.45 and the phosphorylation enrichment [12] was 1.17. The phosphorylation enrichment [13] was 2.61, the phosphorylation enrichment [14] was 0.525 and the phosphorylation enrichment [15] was 2.46. The phosphorylation enrichment [16] was 0.862.

Sequence HNVPICEGYAL [ACTC1_Y168_Y168C] has an SH2 binding enrichment [1] of 0.833, an SH2 binding enrichment [2] of 0.779 and an SH2 binding enrichment [3] of 0.587. For the same sequence, the phosphorylation enrichment [4] was 0.801, the phosphorylation enrichment [5] was 0.434 and the phosphorylation enrichment [6] was 0.732. For the same sequence, the phosphorylation enrichment [7] was 0.652, the phosphorylation enrichment [8] was 0.895 and the phosphorylation enrichment [9] was 1. For the same sequence, the phosphorylation enrichment [10] was 0.499, the phosphorylation enrichment [11] was 0.513 and the phosphorylation enrichment [12] was 0.916. It also gave a phosphorylation enrichment [13] of 0.505, a phosphorylation enrichment [14] of 0.841 and a phosphorylation enrichment [15] of 0.668. For the same sequence, the phosphorylation enrichment [16] was 0.86.

Sequence NRNVRYLTLDI [AKR1C2_Y305] has an SH2 binding enrichment [1] of 1.03, an SH2 binding enrichment [2] of 6.75 and an SH2 binding enrichment [3] of 1.96. The phosphorylation enrichment [4] was 0.392, the phosphorylation enrichment [5] was 0.381 and the phosphorylation enrichment [6] was 0.507. The phosphorylation enrichment [7] was 0.635, the phosphorylation enrichment [8] was 0.835 and the phosphorylation enrichment [9] was 0.921. It also gave a phosphorylation enrichment [10] of 0.395, a phosphorylation enrichment [11] of 0.506 and a phosphorylation enrichment [12] of 0.523. For the same sequence, the phosphorylation enrichment [13] was 0.497, the phosphorylation enrichment [14] was 0.499 and the phosphorylation enrichment [15] was 0.441. It also gave a phosphorylation enrichment [16] of 0.744.

With DTQNSYRCATS [TSC1_Y304_G305R] the SH2 binding enrichment [1] was 0.956, the SH2 binding enrichment [2] was 0.594 and the SH2 binding enrichment [3] was 0.554. For the same sequence, the phosphorylation enrichment [4] was 0.389, the phosphorylation enrichment [5] was 0.538 and the phosphorylation enrichment [6] was 0.565. It also gave a phosphorylation enrichment [7] of 0.593, a phosphorylation enrichment [8] of 0.612 and a phosphorylation enrichment [9] of 0.726. It also gave a phosphorylation enrichment [10] of 0.392, a phosphorylation enrichment [11] of 0.501 and a phosphorylation enrichment [12] of 0.42. It also gave a phosphorylation enrichment [13] of 0.466, a phosphorylation enrichment [14] of 0.486 and a phosphorylation enrichment [15] of 0.449. The phosphorylation enrichment [16] was 0.771.

Sequence PEEKVYLSRGD [CRACR2A_Y141_H136P] has an SH2 binding enrichment [1] of 0.804, an SH2 binding enrichment [2] of 0.529 and an SH2 binding enrichment [3] of 0.457. The phosphorylation enrichment [4] was 1.06, the phosphorylation enrichment [5] was 0.88 and the phosphorylation enrichment [6] was 0.706. It also gave a phosphorylation enrichment [7] of 1.35, a phosphorylation enrichment [8] of 1.22 and a phosphorylation enrichment [9] of 1.77. It also gave a phosphorylation enrichment [10] of 0.778, a phosphorylation enrichment [11] of 0.573 and a phosphorylation enrichment [12] of 1.1. It also gave a phosphorylation enrichment [13] of 0.735, a phosphorylation enrichment [14] of 1.29 and a phosphorylation enrichment [15] of 1.01. For the same sequence, the phosphorylation enrichment [16] was 1.44.

TSEASYFKSLN [NGEF_Y288_YF] showed an SH2 binding enrichment [1] of 0.56, an SH2 binding enrichment [2] of 0.589 and an SH2 binding enrichment [3] of 0.4. For the same sequence, the phosphorylation enrichment [4] was 0.438, the phosphorylation enrichment [5] was 0.684 and the phosphorylation enrichment [6] was 0.563. For the same sequence, the phosphorylation enrichment [7] was 0.51, the phosphorylation enrichment [8] was 0.626 and the phosphorylation enrichment [9] was 0.717. It also gave a phosphorylation enrichment [10] of 0.535, a phosphorylation enrichment [11] of 0.599 and a phosphorylation enrichment [12] of 0.359. For the same sequence, the phosphorylation enrichment [13] was 0.481, the phosphorylation enrichment [14] was 0.487 and the phosphorylation enrichment [15] was 0.677. It also gave a phosphorylation enrichment [16] of 0.972.

Work on FIATQYSLRPR [LBR_Y166_YF] yielded an SH2 binding enrichment [1] of 1.01, an SH2 binding enrichment [2] of 0.973 and an SH2 binding enrichment [3] of 0.477. For the same sequence, the phosphorylation enrichment [4] was 0.39, the phosphorylation enrichment [5] was 0.458 and the phosphorylation enrichment [6] was 0.532. For the same sequence, the phosphorylation enrichment [7] was 0.525, the phosphorylation enrichment [8] was 0.551 and the phosphorylation enrichment [9] was 0.671. For the same sequence, the phosphorylation enrichment [10] was 0.399, the phosphorylation enrichment [11] was 0.518 and the phosphorylation enrichment [12] was 0.454. The phosphorylation enrichment [13] was 0.506, the phosphorylation enrichment [14] was 0.471 and the phosphorylation enrichment [15] was 0.464. It also gave a phosphorylation enrichment [16] of 0.635.

EKKDLYKAGEQ [CFH_Y1008_V1007L] gave an SH2 binding enrichment [1] of 0.794, an SH2 binding enrichment [2] of 0.655 and an SH2 binding enrichment [3] of 0.46. For the same sequence, the phosphorylation enrichment [4] was 0.382, the phosphorylation enrichment [5] was 0.43 and the phosphorylation enrichment [6] was 0.356. It also gave a phosphorylation enrichment [7] of 0.62, a phosphorylation enrichment [8] of 0.606 and a phosphorylation enrichment [9] of 0.799. The phosphorylation enrichment [10] was 0.431, the phosphorylation enrichment [11] was 0.432 and the phosphorylation enrichment [12] was 0.374. The phosphorylation enrichment [13] was 0.374, the phosphorylation enrichment [14] was 0.647 and the phosphorylation enrichment [15] was 0.369. For the same sequence, the phosphorylation enrichment [16] was 0.705.

LSVISYDLGMF [GBA3_Y174_M172I] gave an SH2 binding enrichment [1] of 1.12, an SH2 binding enrichment [2] of 1.12 and an SH2 binding enrichment [3] of 0.888. For the same sequence, the phosphorylation enrichment [4] was 0.742, the phosphorylation enrichment [5] was 0.436 and the phosphorylation enrichment [6] was 0.328. For the same sequence, the phosphorylation enrichment [7] was 0.961, the phosphorylation enrichment [8] was 1.21 and the phosphorylation enrichment [9] was 1.27. For the same sequence, the phosphorylation enrichment [10] was 0.415, the phosphorylation enrichment [11] was 0.72 and the phosphorylation enrichment [12] was 0.481. For the same sequence, the phosphorylation enrichment [13] was 0.424, the phosphorylation enrichment [14] was 0.581 and the phosphorylation enrichment [15] was 0.586. It also gave a phosphorylation enrichment [16] of 1.2.

Sequence NREGVYTVSAP [TGFBI_Y537_F540S] has an SH2 binding enrichment [1] of 0.834, an SH2 binding enrichment [2] of 0.769 and an SH2 binding enrichment [3] of 0.472. For the same sequence, the phosphorylation enrichment [4] was 0.537, the phosphorylation enrichment [5] was 10.9 and the phosphorylation enrichment [6] was 0.462. The phosphorylation enrichment [7] was 0.565, the phosphorylation enrichment [8] was 0.719 and the phosphorylation enrichment [9] was 0.705. The phosphorylation enrichment [10] was 1.12, the phosphorylation enrichment [11] was 0.517 and the phosphorylation enrichment [12] was 2.34. For the same sequence, the phosphorylation enrichment [13] was 1.16, the phosphorylation enrichment [14] was 0.523 and the phosphorylation enrichment [15] was 8.38. It also gave a phosphorylation enrichment [16] of 0.757.

Work on EEALYYLTRVE [SET_Y119_H118Y] yielded an SH2 binding enrichment [1] of 0.947, an SH2 binding enrichment [2] of 1.39 and an SH2 binding enrichment [3] of 0.669. For the same sequence, the phosphorylation enrichment [4] was 1.85, the phosphorylation enrichment [5] was 4.26 and the phosphorylation enrichment [6] was 9.54. It also gave a phosphorylation enrichment [7] of 1.53, a phosphorylation enrichment [8] of 2.69 and a phosphorylation enrichment [9] of 1.43. For the same sequence, the phosphorylation enrichment [10] was 5.28, the phosphorylation enrichment [11] was 1.91 and the phosphorylation enrichment [12] was 4.07. It also gave a phosphorylation enrichment [13] of 6.68, a phosphorylation enrichment [14] of 9.52 and a phosphorylation enrichment [15] of 4.59. The phosphorylation enrichment [16] was 2.55.
